Self-cleavage data for 167 variants are collected here from the RNAGym collection of RNA variant scans (doi:10.7554/elife.90254).

First the molecules themselves.
B1: OR4K15 (parent)
chain: GUUAACGGUCAUAGGCCAUGGAAACUAGGAGCACCAUUUCGCUGCCAGUGAAGAAAUGAACAAAGAAAAUCUGGGCCAGGCAGGCAUCAAAAGAAAUAGUCUUGCGCUCAACCAGAAAGUCUGUAAUCAUUUUAAGGGUA

The data set covers variants of B1. Nature of the data set: self-cleavage, relative activity (ratio to wild type); higher = more cleavage; in vitro, sequencing; the parent is a self-cleaving ribozyme.
With U2C U124C, the self-cleavage was 0.42.

In the case of A5C U100C, the self-cleavage was determined as 1.25.

A5G A36G: the self-cleavage was determined as 0.8.

In the case of A5G A36C, the self-cleavage stood at 1.79.

With A4G G14U, the self-cleavage was 0.67.

As for U2C U72G, the self-cleavage worked out at 0.19.

Turning to U2G U9C, the self-cleavage amounted to 1.05.

Regarding U2G A118G, the self-cleavage was 0.66.

For U2C U49A, the self-cleavage turned out to be 1.5.

For U2C U49C, the self-cleavage was 1.34.

With A5G A23G, the self-cleavage stood at 0.8.

In the case of U3C A30U, the self-cleavage was 1.37.

For U3C U103A, the self-cleavage was 0.64.

For the variant A5C G106U, the self-cleavage came to 0.07.

With A4U A96G, the self-cleavage is 1.05.

Take U3C A60G: the self-cleavage was determined as 0.93.

For the variant A4G C88U, the self-cleavage was determined as 0.96.

In the case of A4G C88G, the self-cleavage was 1.46.

As for A5C U57C, the self-cleavage came to 0.75.

On to A4U A140U, for which the self-cleavage came out at 1.5.

Take U3C G84C: the self-cleavage is 0.37.

Take U2G U3C: the self-cleavage amounted to 1.11.

As for U2C G28U, the self-cleavage was 2.17.

For the variant A4G A24G, the self-cleavage is 1.62.

In the case of U3A A116G, the self-cleavage was determined as 0.32.

Consider A5G C45A, for which the self-cleavage stood at 0.99.

Turning to U2C U102C, the self-cleavage came out at 0.64.

Take U2C U102A: the self-cleavage turned out to be 0.73.

In the case of A5G A11G, the self-cleavage came to 0.63.

Take A5G C88A: the self-cleavage turned out to be 0.8.

For A5G A62U, the self-cleavage turned out to be 1.09.

Turning to U2G U12C, the self-cleavage stood at 0.61.

For U2G U12A, the self-cleavage came out at 1.45.

As for U3C C105U, the self-cleavage was 0.06.

On to A4C U87C, for which the self-cleavage was 0.81.

For A4G U49A, the self-cleavage came out at 0.8.

Regarding A4G U49C, the self-cleavage is 0.82.

As to A5G A78C, the self-cleavage is 0.62.

For the variant A5G G83A, the self-cleavage is 1.54.

In the case of A5C A59U, the self-cleavage worked out at 1.73.

As to U3C A18G, the self-cleavage was determined as 1.02.

For U3C A18U, the self-cleavage was determined as 0.78.

Turning to A4G U102C, the self-cleavage came out at 1.36.

As for U3C G75C, the self-cleavage came to 0.08.

As for U3C G75A, the self-cleavage came out at 0.11.

As to A4U U19C, the self-cleavage came to 0.7.

For A5G A63U, the self-cleavage was determined as 1.35.

For the variant A5G A118U, the self-cleavage turned out to be 0.56.

On to A5G A118G, for which the self-cleavage is 1.

For the variant A4G A11G, the self-cleavage turned out to be 0.86.

Take U2G U102C: the self-cleavage stood at 0.94.

As for A4G U43C, the self-cleavage turned out to be 1.35.

As to A4G A30G, the self-cleavage turned out to be 0.64.

For the variant U3C U39G, the self-cleavage worked out at 1.72.

In the case of A5G A95G, the self-cleavage amounted to 1.27.

On to A4U, for which the self-cleavage stood at 1.19.

With A4G, the self-cleavage was determined as 0.87.

A4C: the self-cleavage came to 0.61.

Take U2C U120C: the self-cleavage stood at 0.43.

A5G A60G: the self-cleavage turned out to be 1.08.

As to A5G A60U, the self-cleavage came to 1.08.

A4G U39A: the self-cleavage was 1.27.

For A4G A23G, the self-cleavage is 1.09.

On to A4G A36G, for which the self-cleavage amounted to 1.43.

With A5G A30G, the self-cleavage was determined as 1.03.

Turning to U2G, the self-cleavage came out at 0.92.

On to U2C U26G, for which the self-cleavage amounted to 0.72.

As for U2C U26C, the self-cleavage came out at 1.2.

As for A5G A92G, the self-cleavage is 0.53.

As for U3A G65U, the self-cleavage is 0.33.

With A4G G137U, the self-cleavage came to 2.

As for U2C U131G, the self-cleavage came out at 1.08.

Take A4G A67G: the self-cleavage was found to be 1.16.

For the variant A4G A27G, the self-cleavage was 1.52.

A4G U9C: the self-cleavage is 1.33.

With A5G A22G, the self-cleavage came to 0.81.

With A5G A22U, the self-cleavage was found to be 1.01.

As to A5G U87A, the self-cleavage is 0.62.

Regarding A4G A33G, the self-cleavage stood at 1.14.

With U3A U70A, the self-cleavage stood at 1.46.

On to A5G G14C, for which the self-cleavage worked out at 1.57.

Regarding U3C U132G, the self-cleavage is 0.36.

U2G A140G: the self-cleavage amounted to 1.09.

In the case of A4G A52G, the self-cleavage was 1.08.

Turning to A5G A91G, the self-cleavage turned out to be 0.47.

As to A4C C81U, the self-cleavage amounted to 0.79.

Turning to A4G U139C, the self-cleavage is 1.21.

With U3A U131C, the self-cleavage came out at 0.64.

With U2G A94G, the self-cleavage is 0.48.

Regarding U3C U87C, the self-cleavage was 0.63.

As for A4G U132C, the self-cleavage was 0.72.

Consider A4G U132A, for which the self-cleavage was found to be 0.44.

In the case of U3A A5U, the self-cleavage was determined as 0.64.

Consider A4G A114G, for which the self-cleavage came out at 0.76.

Consider U2C G53U, for which the self-cleavage was determined as 1.64.

Regarding U2C G136A, the self-cleavage stood at 1.66.

Turning to A5G A140G, the self-cleavage worked out at 0.77.

As for U2C G84A, the self-cleavage was 1.46.

As for A5G A51G, the self-cleavage came out at 1.2.

Take A5G A51U: the self-cleavage turned out to be 1.35.

Turning to A4G A18G, the self-cleavage turned out to be 1.23.

Regarding A4G C85U, the self-cleavage is 0.99.

For A4U A36U, the self-cleavage stood at 1.62.

Take A5C U102C: the self-cleavage came out at 0.96.

Regarding A5G U57G, the self-cleavage was 1.17.

For A5G U57A, the self-cleavage came to 1.09.

Turning to A4G G50U, the self-cleavage came to 1.39.

Consider A4G A68G, for which the self-cleavage turned out to be 0.87.

As to A4G C77U, the self-cleavage is 1.45.

Consider U3C U26C, for which the self-cleavage worked out at 1.29.

As to U2G A111G, the self-cleavage turned out to be 0.

For the variant U2G A111U, the self-cleavage worked out at 0.17.

Regarding A4U U57G, the self-cleavage is 0.74.

Consider A4G U131C, for which the self-cleavage amounted to 1.45.

Consider U2C G50U, for which the self-cleavage was 1.13.

For A4G A110U, the self-cleavage is 1.15.

Regarding A4G C113U, the self-cleavage stood at 0.19.

On to U3G A30G, for which the self-cleavage is 1.12.

U3C C77U: the self-cleavage came to 0.69.

Turning to U3A A92G, the self-cleavage is 1.3.

Turning to U3A A22G, the self-cleavage amounted to 1.2.

As to A5C A116G, the self-cleavage stood at 0.83.

For U3A A64G, the self-cleavage came out at 1.11.

Consider A5G C85U, for which the self-cleavage worked out at 0.92.

For U3C A98G, the self-cleavage was 0.6.

With U3C A98C, the self-cleavage is 1.18.

In the case of A5G G58A, the self-cleavage came out at 1.07.

In the case of U3A A18G, the self-cleavage came out at 1.11.

With A5G U39C, the self-cleavage was 1.32.

As to A5G U39A, the self-cleavage worked out at 1.16.

For A5C A110U, the self-cleavage is 0.95.

U3C U43C: the self-cleavage worked out at 0.78.

Consider U2G U57C, for which the self-cleavage was found to be 1.13.

Take A5G A33C: the self-cleavage came to 1.28.

Turning to A5G A33U, the self-cleavage came to 1.01.

Consider A5G A33G, for which the self-cleavage is 0.67.

Take A5G U49A: the self-cleavage worked out at 0.9.

In the case of A5C A60G, the self-cleavage was determined as 1.88.

A4U A59U: the self-cleavage was determined as 1.95.

For A4G G83A, the self-cleavage turned out to be 1.44.

For the variant U3A U127A, the self-cleavage turned out to be 1.84.

U3C U12C: the self-cleavage was 1.24.

A5G A69G: the self-cleavage came to 1.54.

Regarding A4G A126G, the self-cleavage turned out to be 1.09.

Consider A4G C35A, for which the self-cleavage stood at 1.14.

As to U3C A11G, the self-cleavage was 1.34.

As for U3C A129G, the self-cleavage amounted to 1.14.

For the variant A4G A51G, the self-cleavage amounted to 1.01.

Take A5G A82U: the self-cleavage is 0.41.

In the case of A5G A82G, the self-cleavage amounted to 0.68.

For U3C A96U, the self-cleavage amounted to 1.02.

For U3C A96G, the self-cleavage was 1.3.

As to A5G A24C, the self-cleavage was found to be 0.68.

For A5C U87C, the self-cleavage turned out to be 0.73.

As for U2C U3C, the self-cleavage was determined as 0.98.

Turning to A4G U37C, the self-cleavage was 0.91.

In the case of U2G A116G, the self-cleavage stood at 0.37.

In the case of U3C A23C, the self-cleavage came out at 1.42.

U3A U130G: the self-cleavage came to 0.73.

As to U3A A47U, the self-cleavage worked out at 1.18.

As to A4C A24G, the self-cleavage was determined as 0.75.

Consider A4C A24U, for which the self-cleavage came to 0.5.

Turning to U3C U124C, the self-cleavage was 0.9.

With U2G U39C, the self-cleavage came out at 2.03.

In the case of A5C U38C, the self-cleavage was determined as 1.28.

For the variant A4G U127C, the self-cleavage was 0.38.

As to A4U U120C, the self-cleavage stood at 0.54.
